Test results published in patent US20250026837A1 (CANCURE, published 2025).

Columns and labels:
[1] = target: T1, MICB (antigen in solution in the BLI assay) (UniProt Q29980 24-297, limits assumed); test: BLI, Octet Red96; antibody captured on biosensor, MICB dilution series in solution; 1:1 model, global fit; Ab-J (chimeric B10G5), FIG. 2A
T1 construct: also called antigen (MICB)
T1 sequence (looked up): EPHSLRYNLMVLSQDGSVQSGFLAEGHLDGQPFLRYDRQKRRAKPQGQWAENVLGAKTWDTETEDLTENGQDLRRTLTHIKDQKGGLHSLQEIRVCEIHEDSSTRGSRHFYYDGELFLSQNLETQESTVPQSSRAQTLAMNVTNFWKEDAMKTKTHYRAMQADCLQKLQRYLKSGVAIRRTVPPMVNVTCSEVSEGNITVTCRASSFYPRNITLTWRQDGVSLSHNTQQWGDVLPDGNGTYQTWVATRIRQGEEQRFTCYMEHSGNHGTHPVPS
Method: (§1) Bio-layer interferometry (BLI) was performed using Octet Red96 (ForteBio) generally as described by Kamat and Rafique, Analytical Biochemistry 536: 16-31 (2017). Antibody samples, Ab-K and Ab-J (chimeric B10G5), were captured on kinetic grade biosensors. The loaded biosensors were then dipped into a dilution series of samples containing antigen (MICB) serially diluted in PBS buffer with 0.1% BSA, 0.02% Tween-20, pH 7.2. […] Kinetic analysis was performed using a 1:1 binding model and global fitting with mass transport limitation using the Scrubber software.

[2] = target: T1, MICB (antigen in solution in the BLI …); test: BLI, Octet Red96; antibody captured on biosensor, MICB dilution series in solution; 1:1 model, global fit; Ab-K (humanized), FIG. 2B
Method: as §1

Binder	Kd [1]	Kd [2]
antibody J (Ab-J; chimeric B10G5, parental HC / parental LC with human IgG1 Fc region) (antibody, V domains shown, also called chimeric antibody B10G5) VH: EVQLEESGPGLVKPSQSLSLTCTVTGYSITSDYAWNWIRQFPGNKLEWMGYISYSGSTNYNPSLKSRISITRDTSKNQFFLQLNSVITEDTATYYCARGGTYFDYWGQGTTLTVSS VL: DIVLTQTTSYLSVSLGGRVTIACKASAHINNWLAWYQQKPGNAPRLLISDATSLETGVPSRFSGSGSGKDYTLSITSLQTEDVATYYCQHYWSTPWTFGGGTKLEIK	12.1 nM	–
antibody K (Ab-K; humanized HC2 / humanized LC3, human IgG1) (antibody, V domains shown, also called K (HC2/LC3)) VH: EVQLQESGPGLVKPSQTLSLTCTVSGYSITSDYAWNWIRQPPGKGLEWIGYISYSGSTNYNPSLKSRVTISRDTSKNQFSLKLSSVTAADTAVYYCARGGTYFDYWGQGTLVTVSS VL: DVVMTQSPSTLSASVGDRVTITCRASAHINNWLAWYQQKPGKAPKLLISDATSLESGVPSRFSGSGSGKEYTLTISSLQPDDFATYYCQHYWSTPWTFGQGTKVEIKR	–	7.2 nM
